Assay [1] concerns the target T1, human wild-type IL-13 (mature chain) (human, UniProt P35225 35-146, Biotinylated on amines (NHS-LC-biotin) in the competition assays. The letters are unchanged.). The assay can be described thus: cell-based or functional assay.
In assay [2] the target is T2, human IL-13 R130Q variant (R110Q of the mature chain) (human, UniProt P35225 35-146, Biotinylated on amines (NHS-LC-biotin, 4:1) in ELISA, panning and competition assays. The letters are unchanged.).
T2 construct: R130Q counts from Met 1 of the signal peptide, R110Q on the mature chain; Bought from Peprotech; also called IL-13 R110Q; b-R130Q
The assay can be described thus: SPR (Biacore), mAb made in CHO. Background: In SPR one partner is held on a chip, and binding of the other changes the refractive index at the surface.

The target in assay [3] is T2, human IL-13 R130Q variant (R110Q of the …). The assay can be described thus: SPR (Biacore), mAb made in HEK293.
Assay [4] deals with T1, human wild-type IL-13 (mature chain). The assay can be described thus: Luminex competition, inhibition of 500 pg/ml biotinylated wt IL-13 binding to IL-13Ra2.
In assay [5] the target is T2, human IL-13 R130Q variant (R110Q of the …). The assay can be described thus: SPR (Biacore), purified mAb from HEK293.
Assay [6] shares this target. The assay can be described thus: competition ELISA, biotinylated IL-13 R130Q binding to plate-bound IL-13Ra2, crude supernatant. For orientation: ELISA stands for enzyme-linked immunosorbent assay.
The target is the same in assay [7]. The assay can be described thus: direct binding ELISA, mAb captured by anti-human Fc, biotinylated IL-13 R130Q, crude supernatant.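 Also: 100% is the positive control mAb signal.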

By Kd is commonly meant the free concentration of one partner at which half of the binding sites on the other are occupied at equilibrium, for simple one-to-one binding. The term IC50 denotes the concentration at which inhibition is half-maximal.

B1: mAb Lc-2B03 with Hc2 M34Q, M100L (antibody, V domains shown)
VH: QVTLKESGPVLVKPTETLTLTCTVSGFSLSTYGQGVGWIRQPPGKALEWLAHIWWDDVKRYNPALKSRLTISKDTSKSQVVLTMTNMDPVDTATYYCARLGSDYDVWFDYWGQGTLVTVSS
VL: EIVLTQSPATLSLSPGERATLSCRASKSISKYLAWYQQKPGQAPRLLIYSGSTLQSGIPARFSGSGSGTDFTLTISSLEPEDFAVYYCQQHDYPYTFGQGTKLEIK
notes: full-length mAb, made in HEK293 and CHO
Turning to B1, the “P-STAT6 EC50” value in assay [1] worked out at 0.87 ng/mL. In addition, the Kd in assay [2] worked out at 0.0251 nM; in assay [3], 0.0243 nM. Besides, the IC50 in assay [4] amounted to 1.71 ng/mL.

B2: Lc2Hc2 (antibody, V domains shown)
VH: QVTLKESGPVLVKPTETLTLTCTVSGFSLSTYGMGVGWIRQPPGKALEWLAHIWWDDVKRYNPALKSRLTISKDTSKSQVVLTMTNMDPVDTATYYCARMGSDYDVWFDYWGQGTLVTVSS
VL: DIQMTQSPSSLSASVGDRVTITCRASKSISKYLAWYQQKPGKAPKLLIYSGSTLQSGVPSRFSGSGSGTDFTLTISSLQPEDFATYYCQQHNEYPYTFGQGTKLEIK
Turning to B2, in assay [5], binding was characterised by a dissociation constant (Kd) of 0.365 nM. Also, the “Percent Inhibition IL-13 R130Q (333 ng/ml) to Ra2” value (“Percent Inhibition IL-13 R130Q” below) in assay [6] amounted to 52%. In assay [7], the “Percent IL-13 R130Q (30 ng/ml) Binding” value came out at 84%.

B3: Lc3Hc2 (antibody, V domains shown)
VH: QVTLKESGPVLVKPTETLTLTCTVSGFSLSTYGMGVGWIRQPPGKALEWLAHIWWDDVKRYNPALKSRLTISKDTSKSQVVLTMTNMDPVDTATYYCARMGSDYDVWFDYWGQGTLVTVSS
VL: AIQLTQSPSSLSASVGDRVTITCRASKSISKYLAWYQQKPGKAPKLLIYSGSTLQSGVPSRFSGSGSGTDFTLTISSLQPEDFATYYCQQHNEYPYTFGGGTKVEIK
The molecule B3 showed a Kd in assay [5] of 0.246 nM. In assay [6], the “Percent Inhibition IL-13 R130Q” value came to 50%. In addition, the “Percent IL-13 R130Q (30 ng/ml) Binding” value in assay [7] stood at 85.3%.

B4: mAb Lc-2B03 with Hc2 T31S, M34S, M100L, V106I (antibody, V domains shown)
VH: QVTLKESGPVLVKPTETLTLTCTVSGFSLSSYGSGVGWIRQPPGKALEWLAHIWWDDVKRYNPALKSRLTISKDTSKSQVVLTMTNMDPVDTATYYCARLGSDYDIWFDYWGQGTLVTVSS
VL: EIVLTQSPATLSLSPGERATLSCRASKSISKYLAWYQQKPGQAPRLLIYSGSTLQSGIPARFSGSGSGTDFTLTISSLEPEDFAVYYCQQHDYPYTFGQGTKLEIK
notes: as for B1
For the molecule B4, the “P-STAT6 EC50” value in assay [1] is 0.65 ng/mL. The Kd in assay [2] came out at 0.0211 nM; in assay [3] it was 0.0152 nM. In addition, the IC50 in assay [4] worked out at 1.68 ng/mL.

B5: mAb Lc-2B03 with Hc2 T31S, M34V, M100L (antibody, V domains shown)
VH: QVTLKESGPVLVKPTETLTLTCTVSGFSLSSYGVGVGWIRQPPGKALEWLAHIWWDDVKRYNPALKSRLTISKDTSKSQVVLTMTNMDPVDTATYYCARLGSDYDVWFDYWGQGTLVTVSS
VL: EIVLTQSPATLSLSPGERATLSCRASKSISKYLAWYQQKPGQAPRLLIYSGSTLQSGIPARFSGSGSGTDFTLTISSLEPEDFAVYYCQQHDYPYTFGQGTKLEIK
notes: as for B1
Turning to B5, the “P-STAT6 EC50” value in assay [1] is 0.59 ng/mL. Also, the Kd in assay [2] was 0.0058 nM; in assay [3], 0.0037 nM. This molecule also had an IC50 in assay [4] of 1.75 ng/mL.

B6: Lc8Hc2 (antibody, V domains shown)
VH: QVTLKESGPVLVKPTETLTLTCTVSGFSLSTYGMGVGWIRQPPGKALEWLAHIWWDDVKRYNPALKSRLTISKDTSKSQVVLTMTNMDPVDTATYYCARMGSDYDVWFDYWGQGTLVTVSS
VL: DIQMTQSPSTLSASVGDRVTITCRASKSISKYLAWYQQKPGKAPKLLIYSGSTLQSGVPSRFSGSGSGTEFTLTISSLQPDDFATYYCQQHNEYPYTFGQGTRLEIK
As to B6, the Kd in assay [5] was found to be 0.272 nM. The “Percent Inhibition IL-13 R130Q” value in assay [6] was found to be 55%. The “Percent IL-13 R130Q (30 ng/ml) Binding” value in assay [7] is 81.1%.

B7: mAb Lc-2B03 with Hc2 T31S, M34S, M100L (antibody, V domains shown)
VH: QVTLKESGPVLVKPTETLTLTCTVSGFSLSSYGSGVGWIRQPPGKALEWLAHIWWDDVKRYNPALKSRLTISKDTSKSQVVLTMTNMDPVDTATYYCARLGSDYDVWFDYWGQGTLVTVSS
VL: EIVLTQSPATLSLSPGERATLSCRASKSISKYLAWYQQKPGQAPRLLIYSGSTLQSGIPARFSGSGSGTDFTLTISSLEPEDFAVYYCQQHDYPYTFGQGTKLEIK
notes: as for B1
With B7, the “P-STAT6 EC50” value in assay [1] turned out to be 0.59 ng/mL. Besides, the Kd in assay [2] was 0.0101 nM; in assay [3] it was 0.0123 nM. In addition, the IC50 in assay [4] is 1.72 ng/mL.

The values are drawn from US20120045438A1 (Janssen / Centocor, published 2012).
